Laboratory results as given in patent US6710030B1, “Contortrostain (CN) and methods for its use in preventing metastasis and other conditions” (University of Southern California, priority 1993, dated 2004).
Read-outs that look alike come from different tables or passages of the source.

Tests used:
[1] = tested on: OVCAR-5 cells; experiment: Invasion of OVCAR-5 cells through Matrigel, modified Boyden chamber; assay type: cell-based, human; details: 1000 nM
Protocol: Modified Boyden chambers were employed to measure invasion. Filters of 12 mm Boyden chamber with 12 μm pore size (Corning Costar, Cambridge, Mass.) were coated with 1:50 dilution of Matrigel in serum free medium. Cells (2.5×10^5 cells in 200 μl of medium) pre-treated with contortrostatin, antibodies against different integrins, or vehicle (control), were applied to the upper wells. HT1080 conditioned medium was added to the bottom well. The cells were incubated at 37° C. for 8 hr., at which point cells on the top side of the membrane were removed with a wet cotton swab. Cells which invaded through the filter membrane were fixed and stained with Diff-Quik™ staining kit (Dade Diagnostics of P. R. Inc., Aguada, Puerto Rico). The membranes were removed from the holder, and were mounted on slides. Migration was quantitated by determining the number of cells in five randomly selected high power vision field using a microscope. Each inhibitor concentration was tested in duplicate, and the experiments were repeated three times to confirm results.

[2] = tested on: canine carotid artery thrombosis model; experiment: Reoccluding canine carotid artery thrombosis model; assay type: in vivo
Description: The model of carotid artery thrombosis in the anesthetized canine described is a modification of one developed for the study of experimentally-induced coronary artery thrombosis [Romson, J. L. et al., Thromb. Res. 17:841 (1980)]. The experimental procedure results in the formation of a platelet rich intravascular thrombus at the site of an electrolytically-induced endothelial lesion in proximity to a distal arterial stenosis. The carotid artery is selected for the experimental model, thereby allowing one vessel to be used as a control and the other to be used after administration of the thrombolytic and antithrombotic therapy. APSAC (anisoylated plasminogen streptokinase activator complex) has been used as the thrombolytic agent successfully in this model. […] Parameters which are recorded include repeated measures of: phasic and mean carotid artery blood flow velocity using an ultrasonic flow probe, time to thrombotic occlusion, time to recannulization, ex vivo platelet aggregation, prothrombin time, thrombin time, activated partial thromboplastin time, red cell and white cell counts, hematocrit, EKG profile and body temperature, before and after administration of APSAC or APSAC plus CN to separate groups of animals.
Conditioned male mongrel dogs (8-10 kg) have been used for all in vivo studies. […] Arterial blood pressure is monitored from the cannulated femoral artery with the use of a blood pressure transducer. […] Blood flow velocity in the carotid vessels is monitored continuously. […]
Electrolytic injury to the intimal surface of each carotid vessel is accomplished with the use of an intravascular electrode. […] The current delivered to each vessel is monitored continuously and maintained at 300 μA. […]

[3] = tested on: human melanoma M24 met cells; experiment: CN binding to human melanoma M24 met cells
Description: The compositions of the present invention also have utility in inhibiting metastasis in melanoma, carcinoma and sarcoma patients. […] Thus, methods and compositions for preventing metastases in melanoma, carcinoma and sarcoma patients are also contemplated as within the scope of the present invention.

[4] = tested on: canine platelets; details: cited from earlier work
[5] = tested on: T24 cells; experiment: Adhesion of T24 cells to immobilized vitronectin; assay type: cell-based, human
Protocol: Individual wells of 96-well plates were coated at 4° C. overnight with 100 μl of vitronectin (1 μg/well). Excess proteins were washed off with three washes of phosphate buffered saline (PBS), followed by blocking with 1% bovine serum albumin (BSA) in PBS. Aliquots (100 μl) of cells (5×10^5 cells/ml) were incubated at room temperature for 20 minutes with antibodies or contortrostatin before being applied to the coated wells. Treated cells were allowed to adhere to the wells for 30 minutes at 37° C. Unbound cells were washed off with serum-free medium. Cell adhesion was quantified either by CellTiter 96™ Aqueous Proliferation Assay kit (Promega, Madison, Wis.). Each inhibitor concentration was tested in triplicate, and assays were performed at least three times yielding identical results.

[6] = tested on: unactivated human platelets; experiment: Scatchard analysis of CN binding to unactivated human platelets
[7] = target: purified αvβ5 (Homo sapiens, UniProt P06756+P18084); experiment: Solid-phase binding of contortrostatin to purified αvβ5 (modified ELISA); details: 100 ng αvβ5 per well
purified αvβ5, sequence (P06756 31-889 limits assumed): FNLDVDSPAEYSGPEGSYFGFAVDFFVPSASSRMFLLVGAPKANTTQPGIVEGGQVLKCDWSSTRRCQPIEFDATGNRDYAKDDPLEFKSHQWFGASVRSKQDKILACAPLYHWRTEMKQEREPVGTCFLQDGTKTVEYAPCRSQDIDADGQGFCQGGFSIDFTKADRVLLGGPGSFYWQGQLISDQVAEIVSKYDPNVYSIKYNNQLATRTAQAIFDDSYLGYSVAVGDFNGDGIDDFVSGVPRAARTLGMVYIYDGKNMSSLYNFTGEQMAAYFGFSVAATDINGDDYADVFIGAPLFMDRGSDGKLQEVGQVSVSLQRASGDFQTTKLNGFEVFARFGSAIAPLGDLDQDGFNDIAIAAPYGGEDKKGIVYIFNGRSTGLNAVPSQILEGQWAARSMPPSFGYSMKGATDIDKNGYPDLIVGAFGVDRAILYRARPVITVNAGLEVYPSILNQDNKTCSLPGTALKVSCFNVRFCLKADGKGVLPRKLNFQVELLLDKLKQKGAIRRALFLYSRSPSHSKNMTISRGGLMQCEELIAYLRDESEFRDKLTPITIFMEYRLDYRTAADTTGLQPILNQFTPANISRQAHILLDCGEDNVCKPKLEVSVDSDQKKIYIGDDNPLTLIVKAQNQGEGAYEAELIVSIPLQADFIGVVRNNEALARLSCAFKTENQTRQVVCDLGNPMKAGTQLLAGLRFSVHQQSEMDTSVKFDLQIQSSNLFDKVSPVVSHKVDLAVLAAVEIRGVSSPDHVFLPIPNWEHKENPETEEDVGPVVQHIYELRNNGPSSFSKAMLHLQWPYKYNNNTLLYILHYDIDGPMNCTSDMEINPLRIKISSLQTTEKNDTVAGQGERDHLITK
purified αvβ5, sequence (P18084 24-799): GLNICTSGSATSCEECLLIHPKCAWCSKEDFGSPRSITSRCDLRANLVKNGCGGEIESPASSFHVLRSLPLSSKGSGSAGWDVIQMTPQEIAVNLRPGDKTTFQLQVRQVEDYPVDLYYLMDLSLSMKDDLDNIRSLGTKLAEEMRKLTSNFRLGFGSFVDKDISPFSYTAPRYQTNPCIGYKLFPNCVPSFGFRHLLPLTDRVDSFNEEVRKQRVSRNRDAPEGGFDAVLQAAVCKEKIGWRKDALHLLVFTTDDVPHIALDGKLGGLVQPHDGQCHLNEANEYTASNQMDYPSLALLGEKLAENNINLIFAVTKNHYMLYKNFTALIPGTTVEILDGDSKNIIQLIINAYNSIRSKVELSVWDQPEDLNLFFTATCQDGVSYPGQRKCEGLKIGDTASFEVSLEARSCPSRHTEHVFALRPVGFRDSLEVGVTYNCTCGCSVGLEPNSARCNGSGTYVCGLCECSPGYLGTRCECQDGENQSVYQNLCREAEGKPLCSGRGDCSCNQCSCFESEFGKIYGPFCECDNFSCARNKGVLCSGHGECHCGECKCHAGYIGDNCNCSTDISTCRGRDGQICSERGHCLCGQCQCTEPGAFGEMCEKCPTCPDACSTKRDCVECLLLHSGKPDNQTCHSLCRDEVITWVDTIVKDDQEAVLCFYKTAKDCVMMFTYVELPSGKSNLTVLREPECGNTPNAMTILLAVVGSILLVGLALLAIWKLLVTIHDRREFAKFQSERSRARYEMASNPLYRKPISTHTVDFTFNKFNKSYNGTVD
Protocol: Experiment 3: Detection of the binding of contortrostatin to αvβ5: Direct evidence that contortrostatin binds to αvβ5 was collected by solid-phase binding assay using purified αvβ5 and a modified ELISA. Soluble αvβ5 (100 ng) was immobilized on wells of a 96-well plate at 4° C. overnight. Excess protein was washed off, and unbound sites were blocked with 1% BSA/PBS. Contortrostatin at various concentrations was allowed to bind to the coated plate at room temperature for one hour. After three washes with PBS, the bound contortrostatin molecules were detected with 1:1,000 antiserum against contortrostatin. Goat anti-rabbit antibody conjugated with alkaline phosphotase was used as a secondary antibody. The bound antibodies were quantitated by applying substrate disodium p-nitrophenyl phosphate (pNPP) and determining the light absorbance at 405 nm 15 minutes after the initiation of the chromagenic reaction. The background is defined by the binding of antiserum against the disintegrin to immobilized αvβ5. Specific binding is obtained by substrating the background from the total binding. Analyses of each concentration of ligand were performed in triplicate.

B1: contortrostatin (protein)
chain: DAPANPCCDAATCKLTTGSQCADGLCCDQCKFMKEGTVCRRARGDDLDDYCNGISAGCPRNPFHA
Question: Which results are given for B1?
Answer: invasion of OVCAR-5 cells through Matrigel [1]: almost completely inhibited invasion; recovery of platelet counts ([2]; by the conclusion of the experimental procedure): 30-40 % of the baseline value; drop in platelet counts ([2]; during experiment, APSAC plus CN (0.155 mg/kg)): 10-20 % of the baseline value; changes in mean arterial blood pressure or mean heart rate ([2]; following infusion of CN): essentially no changes; number of sites, high affinity site [3]: 96,000 (±39,000) sites per cell; number of sites, lower affinity site [3]: 480,000 (±90,000) sites per cell; Kd ([3]; read-out: Kd, lower affinity site): 41 nM; Kd ([3]; read-out: dissociation constant (Kd), high affinity site): 1.1 nM; 50% inhibition (IC50) of platelet aggregation, canine platelets [4]: 2.2 µg/mL; adhesion of T24 cells to vitronectin, in words ([5]; FIG. 19 A, B): inhibits adhesion of T24 completely; inhibition of adhesion of T24 cells to vitronectin ([5]; at a concentration less than 10 μg/ml): 100%; number of binding sites (Bm) [6]: 100,000; binding to immobilized αvβ5 [7]: binds to αvβ5 in a dose-dependent and saturable manner
